Source: paper PMC7748003 (Plant Communications, 2019)

Columns and labels:
BES1-MBP = BES1-MBP (Arabidopsis thaliana, UniProt Q9LN63 1-335); assay: EMSA
GST-SMXL6 = molecular target: T1, GST-SMXL6 (Arabidopsis, UniProt Q9LML2 1-979); assay: pull-down
T1 sequence (looked up): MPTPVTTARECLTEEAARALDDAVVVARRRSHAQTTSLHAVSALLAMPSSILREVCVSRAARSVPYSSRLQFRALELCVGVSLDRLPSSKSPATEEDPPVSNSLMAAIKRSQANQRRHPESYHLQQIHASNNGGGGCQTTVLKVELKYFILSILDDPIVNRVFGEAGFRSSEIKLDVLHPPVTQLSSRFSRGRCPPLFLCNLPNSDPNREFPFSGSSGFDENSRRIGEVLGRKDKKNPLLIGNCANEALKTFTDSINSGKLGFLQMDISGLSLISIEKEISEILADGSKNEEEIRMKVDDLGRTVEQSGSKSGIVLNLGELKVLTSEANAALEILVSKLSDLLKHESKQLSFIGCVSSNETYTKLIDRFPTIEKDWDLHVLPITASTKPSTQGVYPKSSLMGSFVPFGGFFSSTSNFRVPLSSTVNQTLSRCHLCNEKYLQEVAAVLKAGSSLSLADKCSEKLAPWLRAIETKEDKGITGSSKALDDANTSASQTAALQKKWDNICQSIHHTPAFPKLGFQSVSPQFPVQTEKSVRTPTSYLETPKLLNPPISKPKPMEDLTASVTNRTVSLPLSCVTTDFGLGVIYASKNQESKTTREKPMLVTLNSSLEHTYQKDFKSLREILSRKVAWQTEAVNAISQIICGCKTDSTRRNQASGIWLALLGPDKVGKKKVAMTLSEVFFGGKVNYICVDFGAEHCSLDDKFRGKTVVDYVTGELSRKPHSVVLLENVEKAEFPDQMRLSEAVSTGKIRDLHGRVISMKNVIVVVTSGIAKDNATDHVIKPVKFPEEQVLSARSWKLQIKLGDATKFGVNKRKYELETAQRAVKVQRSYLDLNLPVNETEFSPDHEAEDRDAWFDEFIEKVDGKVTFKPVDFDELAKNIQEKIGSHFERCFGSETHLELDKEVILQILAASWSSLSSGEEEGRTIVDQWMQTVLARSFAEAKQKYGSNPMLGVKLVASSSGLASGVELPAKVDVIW

GST-SMXL7 = molecular target: T2, GST-SMXL7 (Arabidopsis, UniProt O80875 1-1002); assay: pull-down
T2 sequence (looked up): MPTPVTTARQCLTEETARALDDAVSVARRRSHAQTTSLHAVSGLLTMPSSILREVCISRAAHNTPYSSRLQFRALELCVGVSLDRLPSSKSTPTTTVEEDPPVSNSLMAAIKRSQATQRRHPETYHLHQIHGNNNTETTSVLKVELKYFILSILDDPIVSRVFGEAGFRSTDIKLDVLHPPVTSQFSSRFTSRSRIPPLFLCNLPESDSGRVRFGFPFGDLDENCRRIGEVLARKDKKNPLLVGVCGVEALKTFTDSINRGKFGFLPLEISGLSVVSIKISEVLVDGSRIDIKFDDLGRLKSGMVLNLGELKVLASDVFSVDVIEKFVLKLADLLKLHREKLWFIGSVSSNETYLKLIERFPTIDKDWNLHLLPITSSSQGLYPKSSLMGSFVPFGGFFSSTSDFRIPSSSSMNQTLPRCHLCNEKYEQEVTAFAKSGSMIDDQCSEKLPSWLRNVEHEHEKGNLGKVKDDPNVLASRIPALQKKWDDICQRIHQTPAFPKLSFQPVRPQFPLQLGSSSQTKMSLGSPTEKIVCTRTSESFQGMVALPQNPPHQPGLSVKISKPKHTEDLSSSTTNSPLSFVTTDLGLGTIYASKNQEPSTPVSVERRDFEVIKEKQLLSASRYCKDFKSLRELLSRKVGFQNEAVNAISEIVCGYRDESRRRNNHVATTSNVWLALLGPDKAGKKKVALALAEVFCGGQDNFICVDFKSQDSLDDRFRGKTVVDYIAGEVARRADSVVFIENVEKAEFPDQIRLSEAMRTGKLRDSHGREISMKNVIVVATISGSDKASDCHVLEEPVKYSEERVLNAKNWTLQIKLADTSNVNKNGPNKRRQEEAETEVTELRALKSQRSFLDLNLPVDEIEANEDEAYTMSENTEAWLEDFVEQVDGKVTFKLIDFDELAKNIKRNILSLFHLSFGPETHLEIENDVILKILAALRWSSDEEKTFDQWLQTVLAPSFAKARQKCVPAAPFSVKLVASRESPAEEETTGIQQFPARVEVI

GST-SMXL8 = molecular target: T3, GST-SMXL8 (Arabidopsis, UniProt F4IGZ2 1-910); assay: pull-down
T3 sequence (looked up): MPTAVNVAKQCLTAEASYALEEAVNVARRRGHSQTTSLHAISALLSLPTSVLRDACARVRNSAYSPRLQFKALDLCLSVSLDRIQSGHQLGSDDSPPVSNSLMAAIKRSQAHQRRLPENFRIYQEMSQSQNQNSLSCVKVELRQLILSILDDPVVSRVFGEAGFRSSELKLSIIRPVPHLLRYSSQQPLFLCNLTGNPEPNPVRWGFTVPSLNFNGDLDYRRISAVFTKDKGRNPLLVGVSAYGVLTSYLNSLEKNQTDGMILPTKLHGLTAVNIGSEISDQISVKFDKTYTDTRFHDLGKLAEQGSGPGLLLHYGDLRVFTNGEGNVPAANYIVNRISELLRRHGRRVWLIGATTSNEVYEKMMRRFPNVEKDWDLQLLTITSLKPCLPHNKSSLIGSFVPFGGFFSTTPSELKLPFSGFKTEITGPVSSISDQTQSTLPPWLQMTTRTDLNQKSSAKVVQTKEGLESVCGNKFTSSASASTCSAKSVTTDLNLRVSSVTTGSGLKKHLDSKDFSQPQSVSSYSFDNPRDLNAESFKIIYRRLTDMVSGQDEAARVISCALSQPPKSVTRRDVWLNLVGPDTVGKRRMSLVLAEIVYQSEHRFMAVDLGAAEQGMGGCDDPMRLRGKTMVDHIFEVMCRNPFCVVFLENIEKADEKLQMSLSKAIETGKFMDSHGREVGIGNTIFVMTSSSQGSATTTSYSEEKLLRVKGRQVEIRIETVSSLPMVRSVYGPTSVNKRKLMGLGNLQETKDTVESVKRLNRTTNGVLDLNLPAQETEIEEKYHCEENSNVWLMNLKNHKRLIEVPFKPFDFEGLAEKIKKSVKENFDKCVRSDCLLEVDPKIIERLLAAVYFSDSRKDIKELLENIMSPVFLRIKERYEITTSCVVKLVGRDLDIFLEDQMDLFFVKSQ

B1: BRC1 promoter probe b (fragment F4) (dsDNA)
DNA 1: AACATAAACAAACACAAGGTCCTAATTATAGAAAAAAATC
DNA 2: GATTTTTTTCTATAATTAGGACCTTGTGTTTGTTTATGTT
B1: binds (BES1-MBP).

B2: BRC1 promoter probe a (fragment F2) (dsDNA)
DNA 1: GAACAAATGCAATATATCAATAGTTAGTGTACATATGAAG
DNA 2: CTTCATATGTACACTAACTATTGATATATTGCATTTGTTC
B2: binds (BES1-MBP).

B3: BRC1 promoter probe c (fragment F5) (dsDNA)
DNA 1: AAGAAGATTATAGTACAAGTGTCATTCTCAAAATTTTGTC
DNA 2: GACAAAATTTTGAGAATGACACTTGTACTATAATCTTCTT
B3: binds (BES1-MBP).

B4: MBP-BES1 (natural protein, Arabidopsis, UniProt Q9LN63 1-335, looked up)
chain: MTSDGATSTSAAAAAAAMATRRKPSWRERENNRRRERRRRAVAAKIYTGLRAQGNYNLPKHCDNNEVLKALCSEAGWVVEEDGTTYRKGHKPLPGDMAGSSSRATPYSSHNQSPLSSTFDSPILSYQVSPSSSSFPSPSRVGDPHNISTIFPFLRNGGIPSSLPPLRISNSAPVTPPVSSPTSRNPKPLPTWESFTKQSMSMAAKQSMTSLNYPFYAVSAPASPTHHRQFHAPATIPECDESDSSTVDSGHWISFQKFAQQQPFSASMVPTSPTFNLVKPAPQQLSPNTAAIQEIGQSSEFKFENSQVKPWEGERIHDVAMEDLELTLGNGKAHS
B4: binds (GST-SMXL6); binds (GST-SMXL7); binds (GST-SMXL8).
